The values that follow come from publication doi:10.1101/2020.12.19.423584 (bioRxiv, 2020).

The assay has as its target purified SARS-CoV-2 N protein produced in pupae (SARS-CoV-2, UniProt P0DTC9 1-419). Put plainly: ELISA. On the technique in general: In an ELISA, binding on a coated surface is turned into a signal by an enzyme label.

B1: Niemann-Pick type C1 (NPC1) receptor, endogenous human (natural protein)
chain: QSCVWYGECGIAYGDKRYNCEYSGPPKPLPKDGYDLVQELCPGFFFGNVSLCCDVRQLQTLKDNLQLPLQFLSRCPSCFYNLLNLFCELTCSPRQSQFLNVTATEDYVDPVTNQTKTNVKELQYYVGQSFANAMYNACRDVEAPSSNDKALGLLCGKDADACNATNWIEYMFNKDNGQAPFTITPVFSDFPVHGMEPMNNATKGCDESVDEVTAPCSCQDCSIVCGPKPQPPPPPAPWTILGLDAMYVIMWITYMAFLLVFFGAFFAVWCYRKRYFVSEYTPIDSNIAFSVNASDKGEASCCDPVSAAFEGCLRRLFTRWGSFCVRNPGCVIFFSLVFITACSSGLVFVRVTTNPVDLWSAPSSQARLEKEYFDQHFGPFFRTEQLIIRAPLTDKHIYQPYPSGADVPFGPPLDIQILHQVLDLQIAIENITASYDNETVTLQDICLAPLSPYNTNCTILSVLNYFQNSHSVLDHKKGDDFFVYADYHTHFLYCVRAPASLNDTSLLHDPCLGTFGGPVFPWLVLGGYDDQNYNNATALVITFPVNNYYNDTEKLQRAQAWEKEFINFVKNYKNPNLTISFTAERSIEDELNRESDSDVFTVVISYAIMFLYISLALGHMKSCRRLLVDSKVSLGIAGILIVLSSVACSLGVFSYIGLPLTLIVIEVIPFLVLAVGVDNIFILVQAYQRDERLQGETLDQQLGRVLGEVAPSMFLSSFSETVAFFLGALSVMPAVHTFSLFAGLAVFIDFLLQITCFVSLLGLDIKRQEKNRLDIFCCVRGAEDGTSVQASESCLFRFFKNSYSPLLLKDWMRPIVIAIFVGVLSFSIAVLNKVDIGLDQSLSMPDDSYMVDYFKSISQYLHAGPPVYFVLEEGHDYTSSKGQNMVCGGMGCNNDSLVQQIFNAAQLDNYTRIGFAPSSWIDDYFDWVKPQSSCCRVDNITDQFCNASVVDPACVRCRPLTPEGKQRPQGGDFMRFLPMFLSDNPNPKCGKGGHAAYSSAVNILLGHGTRVGATYFMTYHTVLQTSADFIDALKKARLIASNVTETMGINGSAYRVFPYSVFYVFYEQYLTIIDDTIFNLGVSLGAIFLVTMVLLGCELWSAVIMCATIAMVLVNMFGVMWLWGISLNAVSLVNLVMSCGISVEFCSHITRAFTVSMKGSRVERAEEALAHMGSSVFSGITLTKFGGIVVLAFAKSQIFQIFYFRMYLAMVLLGATHGLIFLPVLLSYIGPSVNKAKSCATEERYKGTERERLLNF
Consider B1, for which the binding result is on record as “binds”.
